Measured values: paper PMC6089974

How the values were obtained:
Assay in all cases: purified protein
purified protein [1] = substrate: O=[N+]([O-])c1ccc(O[C@H]2C=C(CO)[C@H](O)[C@H](O)[C@H]2F)c([N+](=O)[O-])c1; details: 50 mM HEPES pH 7.4, 37 °C, covalent intermediate slowly hydrolysed, apparent binding constant
purified protein [2] = substrate: O=[N+]([O-])c1ccc(O[C@H]2C=C(CO)[C@H](O)[C@H](O)[C@H]2O)c([N+](=O)[O-])c1; details: 50 mM HEPES pH 7.4, 37 °C, covalent intermediate slowly hydrolysed, 3b equilibrates in D2O with its C-2 aryloxy isomer (~2:1)
purified protein [3] = substrate: O=[N+]([O-])c1ccc(O[C@H]2O[C@H](CO)[C@H](O)[C@H](O)[C@H]2F)c([N+](=O)[O-])c1; details: 50 mM HEPES pH 7.4, 37 °C, printed Km does not agree with printed kcat and kcat/Km (possible misprint)
purified protein [4] = substrate: O=[N+]([O-])c1ccc(O[C@H]2O[C@H](CO)[C@H](O)[C@H](O)[C@H]2O)cc1; details: 50 mM HEPES pH 7.4, 37 °C, acid/base mutant

Protein	Km (purified protein [1]) [µM]	kcat (purified protein [1]) [s⁻¹]	kcat/Km (purified protein [1]) [M⁻¹ s⁻¹]	Km (purified protein [2]) [µM]	Km (purified protein [3]) [µM]	Km (purified protein [4]) [µM]	kcat (purified protein [4]) [s⁻¹]	kcat/Km (purified protein [4]) [M⁻¹ s⁻¹]
TmGalA (Thermotoga maritima MSB8) (protein) MEIFGKTFREGRFVLKEKNFTVEFAVEKIHLGWKISGRVKGSPGRLEVLRTKAPEKVLVNNWQSWGPCRVVDAFSFKPPEIDPNWRYTASVVPDVLERNLQSDYFVAEEGKVYGFLSSKIAHPFFAVEDGELVAYLEYFDVEFDDFVPLEPLVVLEDPNTPLLLEKYAELVGMENNARVPKHTPTGWCSWYHYFLDLTWEETLKNLKLAKNFPFEVFQIDDAYEKDIGDWLVTRGDFPSVEEMAKVIAENGFIPGIWTAPFSVSETSDVFNEHPDWVVKENGEPKMAYRNWNKKIYALDLSKDEVLNWLFDLFSSLRKMGYRYFKIDFLFAGAVPGERKKNITPIQAFRKGIETIRKAVGEDSFILGCGSPLLPAVGCVDGMRIGPDTAPFWGEHIEDNGAPAARWALRNAITRYFMHDRFWLNDPDCLILREEKTDLTQKEKELYSYTCGVLDNMIIESDDLSLVRDHGKKVLKETLELLGGRPRVQNIMSEDLRYEIVSSGTLSGNVKIVVDLNSREYHLEKEGKSSLKKRVVKREDGRNFYFYEEGERE	4.1 ± 0.9	0.000229 ± 1.1e-05	56 ± 13	1.68 ± 0.14	253 ± 8			
TmGalA (Thermotoga maritima MSB8; D387A) (protein) MEIFGKTFREGRFVLKEKNFTVEFAVEKIHLGWKISGRVKGSPGRLEVLRTKAPEKVLVNNWQSWGPCRVVDAFSFKPPEIDPNWRYTASVVPDVLERNLQSDYFVAEEGKVYGFLSSKIAHPFFAVEDGELVAYLEYFDVEFDDFVPLEPLVVLEDPNTPLLLEKYAELVGMENNARVPKHTPTGWCSWYHYFLDLTWEETLKNLKLAKNFPFEVFQIDDAYEKDIGDWLVTRGDFPSVEEMAKVIAENGFIPGIWTAPFSVSETSDVFNEHPDWVVKENGEPKMAYRNWNKKIYALDLSKDEVLNWLFDLFSSLRKMGYRYFKIDFLFAGAVPGERKKNITPIQAFRKGIETIRKAVGEDSFILGCGSPLLPAVGCVDGMRIGPATAPFWGEHIEDNGAPAARWALRNAITRYFMHDRFWLNDPDCLILREEKTDLTQKEKELYSYTCGVLDNMIIESDDLSLVRDHGKKVLKETLELLGGRPRVQNIMSEDLRYEIVSSGTLSGNVKIVVDLNSREYHLEKEGKSSLKKRVVKREDGRNFYFYEEGERE						184 ± 7	0.036	196
